Laboratory results as given in article PMC10212944.

What was measured:
RPA (wild type) [1] = target: T1, RPA (wild type) (Homo sapiens, UniProt P27694;P15927;P35244 1-616;1-270;1-121); experiment: fluorescence anisotropy; stoichiometric binding; Stopped flow: 30 mM HEPES pH 7.8, 100 mM KCl, 5 mM MgCl2, 6% glycerol, 1 mM b-ME, 25 C; anisotropy: 50 mM Tris-acetate pH 7.5, 50 mM KCl, 5 mM MgCl2, 1 mM DTT; details: protein: recombinant; copies: 1;1;1; label: 5'-FAM
RPA S384D [2] = target: T2, RPA S384D (Homo sapiens, UniProt P27694;P15927;P35244 1-616;1-270;1-121, S384D); experiment: fluorescence anisotropy; stoichiometric binding; same as WT; Stopped flow: 30 mM HEPES pH 7.8, 100 mM KCl, 5 mM MgCl2, 6% glycerol, 1 mM b-ME, 25 C; anisotropy: 50 mM Tris-acetate pH 7.5, 50 mM KCl, 5 mM MgCl2, 1 mM DTT; details: protein: recombinant; copies: 1;1;1; label: 5'-FAM
T2 sequence (P27694 whole entry S384D, chain 1 of 3): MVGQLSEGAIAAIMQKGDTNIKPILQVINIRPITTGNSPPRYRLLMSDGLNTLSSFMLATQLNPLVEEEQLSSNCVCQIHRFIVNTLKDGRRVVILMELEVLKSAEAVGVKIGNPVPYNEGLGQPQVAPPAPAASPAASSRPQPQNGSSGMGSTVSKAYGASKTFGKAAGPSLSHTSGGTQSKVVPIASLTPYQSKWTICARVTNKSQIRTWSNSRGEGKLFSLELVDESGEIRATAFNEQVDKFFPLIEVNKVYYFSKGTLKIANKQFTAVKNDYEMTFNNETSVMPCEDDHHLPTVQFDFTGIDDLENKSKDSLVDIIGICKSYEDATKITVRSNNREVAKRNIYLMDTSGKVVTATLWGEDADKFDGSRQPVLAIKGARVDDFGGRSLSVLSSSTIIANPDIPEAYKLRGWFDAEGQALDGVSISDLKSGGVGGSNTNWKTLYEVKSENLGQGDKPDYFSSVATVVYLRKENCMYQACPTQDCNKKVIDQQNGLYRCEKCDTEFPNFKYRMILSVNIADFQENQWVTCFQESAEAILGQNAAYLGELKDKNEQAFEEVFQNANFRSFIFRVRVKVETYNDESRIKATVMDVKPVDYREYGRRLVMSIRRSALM
T2 sequence (P15927 whole entry, chain 2 of 3): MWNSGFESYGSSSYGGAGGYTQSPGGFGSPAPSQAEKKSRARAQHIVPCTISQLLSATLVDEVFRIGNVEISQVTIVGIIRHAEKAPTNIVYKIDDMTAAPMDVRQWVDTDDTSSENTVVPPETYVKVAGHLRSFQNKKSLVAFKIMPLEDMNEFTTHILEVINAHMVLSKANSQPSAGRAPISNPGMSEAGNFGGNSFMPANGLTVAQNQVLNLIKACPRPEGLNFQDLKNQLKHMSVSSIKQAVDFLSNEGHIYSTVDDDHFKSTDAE
T2 sequence (P35244 whole entry, chain 3 of 3): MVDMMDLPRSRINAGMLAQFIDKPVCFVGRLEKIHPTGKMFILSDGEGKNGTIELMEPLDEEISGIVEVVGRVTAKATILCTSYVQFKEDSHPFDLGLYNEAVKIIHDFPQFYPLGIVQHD

RPA S384D [3] = target: T2, RPA S384D; experiment: competition (facilitated exchange, stopped-flow FRET); displaces Cy3/Cy5-RPA, kFE 0.9 s-1; Stopped flow: 30 mM HEPES pH 7.8, 100 mM KCl, 5 mM MgCl2, 6% glycerol, 1 mM b-ME, 25 C; anisotropy: 50 mM Tris-acetate pH 7.5, 50 mM KCl, 5 mM MgCl2, 1 mM DTT; details: protein: recombinant; copies: 1;1;1
RPA (wild type) [4] = target: T1, RPA (wild type); experiment: competition (facilitated exchange, stopped-flow FRET); displaces Cy3/Cy5-RPA, kFE 1.8 s-1; Stopped flow: 30 mM HEPES pH 7.8, 100 mM KCl, 5 mM MgCl2, 6% glycerol, 1 mM b-ME, 25 C; anisotropy: 50 mM Tris-acetate pH 7.5, 50 mM KCl, 5 mM MgCl2, 1 mM DTT; details: protein: recombinant; copies: 1;1;1
RPA S384D [5] = target: T2, RPA S384D; experiment: size exclusion chromatography; major 1:1, minor 2:1 protein:DNA; Stopped flow: 30 mM HEPES pH 7.8, 100 mM KCl, 5 mM MgCl2, 6% glycerol, 1 mM b-ME, 25 C; anisotropy: 50 mM Tris-acetate pH 7.5, 50 mM KCl, 5 mM MgCl2, 1 mM DTT; details: protein: recombinant; copies: 1;1;1
RPA (wild type) [6] = target: T1, RPA (wild type); experiment: stopped-flow Trp fluorescence (koff/kon); kon 5.2e10 M-1 s-1, koff 39 s-1 as printed; Stopped flow: 30 mM HEPES pH 7.8, 100 mM KCl, 5 mM MgCl2, 6% glycerol, 1 mM b-ME, 25 C; anisotropy: 50 mM Tris-acetate pH 7.5, 50 mM KCl, 5 mM MgCl2, 1 mM DTT; details: protein: recombinant; copies: 1;1;1

T1 sequence (P27694 whole entry, chain 1 of 3): as the sequence (P27694 whole entry S384D, chain 1 of 3) above, with D384S counted along it
T1 sequence (P15927 whole entry, chain 2 of 3): as the sequence (P15927 whole entry, chain 2 of 3) above
T1 sequence (P35244 whole entry, chain 3 of 3): as the sequence (P35244 whole entry, chain 3 of 3) above

Binder	binding result (RPA (wild type) [1])	binding result (RPA S384D [2])	also measured
TTTTTTTTTTTTTTTTTTTT (ssDNA) [5'-FAM-(dT)20]	binds	binds	
(dT)97 (ssDNA) DNA: TTTTTTTTTTTTTTTTTTTTTTTTTTTTTTTTTTTTTTTTTTTTTTTTTTTTTTTTTTTTTTTTTTTTTTTTTTTTTTTTTTTTTTTTTTTTTTTTT			binding result (RPA S384D [3]): binds; binding result (RPA (wild type) [4]): binds
TTTTTTTTTTTTTTTTTTTTTTTTTTTTTTTTTTT (ssDNA) [(dT)35]			binding result (RPA S384D [5]): binds; Kd (RPA (wild type) [6]): 0.75 ± 0.4 nM
TTTTTTTTTTTTTTTTTTTTTTTTTTTTTTTTTTTTTTTT (ssDNA) [5'-FAM-(dT)40]	binds	binds	
